Source: patent US20220298478A1

Target: full length mesothelin (NM_005823) on target cells (human) (UniProt Q13421)
Test: cell-based or functional assay

Chain of full length mesothelin (NM_005823) on target cells (human) (Q13421 other isoform, or with tags, fused parts or gaps limits assumed): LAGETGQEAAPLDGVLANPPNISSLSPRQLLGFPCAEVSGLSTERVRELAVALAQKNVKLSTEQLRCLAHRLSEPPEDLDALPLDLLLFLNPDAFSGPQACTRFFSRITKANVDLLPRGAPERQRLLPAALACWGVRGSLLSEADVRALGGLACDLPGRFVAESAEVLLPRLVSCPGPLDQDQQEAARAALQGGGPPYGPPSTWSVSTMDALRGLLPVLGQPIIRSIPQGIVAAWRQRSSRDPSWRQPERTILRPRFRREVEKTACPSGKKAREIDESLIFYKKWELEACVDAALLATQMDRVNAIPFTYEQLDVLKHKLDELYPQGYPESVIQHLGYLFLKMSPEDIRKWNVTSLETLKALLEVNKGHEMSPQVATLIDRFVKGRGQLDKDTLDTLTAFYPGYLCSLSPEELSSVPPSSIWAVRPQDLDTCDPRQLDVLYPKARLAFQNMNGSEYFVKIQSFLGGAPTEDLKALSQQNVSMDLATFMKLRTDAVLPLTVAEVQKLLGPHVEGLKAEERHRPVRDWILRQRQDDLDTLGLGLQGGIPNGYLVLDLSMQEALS

B1: SD1 CD3ε-TFP (protein, part only; not given: linker and CD3 epsilon subunit, part only)
chain, part: EVQLVESGGGLVQPGGSLRLSCAASGGDWSANFMYWYRQAPGKQRELVARISGRGVVDYVESVKGRFTISRDNSKNTLYLQMNSLRAEDTAVYYCAVASYWGQGTLVTVSS
B1 gave a tumor cell lysis (luciferase assay), E:T 1-to-1, patients 1, 2, 4 and 5 of 50%, a tumor cell lysis (luciferase assay), E:T 1-to-5, patients 4 and 5 of 50% and a tumor cell lysis (luciferase assay), E:T 5-to-1, patient 3 of 35%. It also gave a tumor cell lysis (luciferase assay), E:T 5-to-1, patients 1, 2, 4 and 5 of 75 to 97%.
